Target: HA-tagged PAK2 (p21 protein (Cdc42/Rac)-activated kinase) (UniProt Q13177)
Assay: co-immunoprecipitation (anti-AU1) with in vitro kinase assay, densitometric quantification
Design: reference not given here
Details: cells transfected with Nef, CDC42V12 and PAK2-HA

Sequence of UniProt Q13177 (Q13177 whole entry): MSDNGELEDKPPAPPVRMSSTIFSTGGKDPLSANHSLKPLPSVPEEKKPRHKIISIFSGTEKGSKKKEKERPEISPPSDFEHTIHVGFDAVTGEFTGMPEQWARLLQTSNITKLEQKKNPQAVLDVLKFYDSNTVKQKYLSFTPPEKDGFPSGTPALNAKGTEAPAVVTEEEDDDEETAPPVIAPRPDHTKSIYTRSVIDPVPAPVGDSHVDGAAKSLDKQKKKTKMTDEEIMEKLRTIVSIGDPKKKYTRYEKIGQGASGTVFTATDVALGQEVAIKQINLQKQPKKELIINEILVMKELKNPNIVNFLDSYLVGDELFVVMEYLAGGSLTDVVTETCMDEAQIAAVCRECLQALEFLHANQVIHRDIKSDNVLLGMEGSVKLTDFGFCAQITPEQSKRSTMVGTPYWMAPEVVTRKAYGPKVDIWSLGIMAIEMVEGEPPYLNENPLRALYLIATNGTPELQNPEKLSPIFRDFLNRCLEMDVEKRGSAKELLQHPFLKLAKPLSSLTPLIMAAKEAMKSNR

Row | Substance | response (parent: 160) | response (parent: 114)
1 | AU1-tagged SIVmac239 Nef, wild-type H121R | 23 | 
2 | AU1-tagged SIVmac239 Nef, wild-type P107A | 59 | 
3 | AU1-tagged SIVmac239 Nef, wild-type Y221R | 26 | 
4 | AU1-tagged SIVmac239 Nef, wild-type H121R; Y221R | 0 | 
5 | AU1-tagged SIVmac239 Nef, wild-type P104A | 123 | 
6 | AU1-tagged SIVblu Nef, wild-type R129A; R130A |  | 0
7 | AU1-tagged SIVmac239 Nef, wild-type P104A; P107A | 34 | 

From article PMC3906981
